Measurements published in the supplement of paper PMC7877785.
± gives the uncertainty stated by the source.

Assay: self-splicing fitness, log relative to wild type (ln ratio); higher = more splicing; Tetrahymena group I intron in knt gene, E. coli kanamycin selection, DiMSum; sequences stand for … in CUCUCU…GGAGGGAAAAGUUAUCAGGCAUGCACCUGGUAGCUAGUCUUUAAACCAAUAGAUUGCAUCGGUUUAAAAGGCAAGACCGUCAAAUUGCGGGAAAGGGGUCAACAGCCGUUCAGUACCAAGUCUCAGGGGAAACUUUGAGAUGGCCUUGCAAAGGGUAUGGUAAUAAGCUGACGGACAUGGUCCUAACCACGCAGCCAAGUCCUAAGUCAACAGAUCUUCUGUUGAUAUGGAUGCAGUUCACAGACUAAAUGUCGGUCGGGGAAGAUGUAUUCUUCUCAUAAGAUAUAGUCGGACCUCUCCUUAAUGGGAGCUAGCGGAUGAAGUGAUGCAACACUGGAGCCGCUGGGAACUAAUUUGUAUGCGAAAGUAUAUUGAUUAGUUUUGGAGUACUCGUGGUCG
Method in brief: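 A randomised library covering all eight P1ex-region intron nucleotides was built with the intron in the knt kanamycin-resistance gene on pET-22b(+) and held in E. coli BL21(DE3). Cells were grown overnight at 37°C or 30°C on LB agar, with or without 25 μg/mL kanamycin, plus 100 μg/mL carbenicillin, 50 μM IPTG and 0.2% rhamnose, and pooled colonies were amplicon-sequenced on an Illumina HiSeq 2500. DiMSum fitness is the error-weighted combination of wild-type-normalised replicate fold changes, kanamycin versus none.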

Sequence	self-splicing fitness (ln) (30 °C)	self-splicing fitness (ln) (37 °C)
ACUUAGCAAUAUUACGGCGG	-1.06 ± 0.087	-0.78 ± 0.096
ACUUAGCAAUAUUACGGGAA	-1.99 ± 0.2	-1.65 ± 0.16
ACUUAGCAAUAUUACGGGCC	-2.42 ± 0.28	-2.35 ± 0.42
ACUUAGCAAUAUUACGGGCU	-1.74 ± 0.084	-0.866 ± 0.11
ACUUAGCAAUAUUACGUCAC	-3.8 ± 0.22	-1.91 ± 0.2
ACUUAGCAAUAUUACGUCCC	-0.637 ± 0.21	-0.072 ± 0.25
ACUUAGCAAUAUUACGUGAC	-2.05 ± 0.21	-2.54 ± 0.29
ACUUAGCAAUAUUACGUGCU	-1.9 ± 0.094	-1.06 ± 0.1
ACUUAGCAAUAUUACGUGUU	-3.22 ± 0.16	-1.5 ± 0.12
ACUUAGCAAUAUUACGUUUG	-3.01 ± 0.12	-2.09 ± 0.16
AGAAAGCAAUAUUACGACCC	0.302 ± 0.21	-0.444 ± 0.27
AGAAAGCAAUAUUACGACCG	-0.595 ± 0.15	0.0491 ± 0.17
AGAAAGCAAUAUUACGAUAU	-1.07 ± 0.096	-0.792 ± 0.11
AGAAAGCAAUAUUACGCAAA	-3.28 ± 0.26	-0.836 ± 0.13
AGAAAGCAAUAUUACGCAUC	-2.53 ± 0.34	–
AGAAAGCAAUAUUACGCCUU	-1.29 ± 0.12	-1.69 ± 0.14
AGAAAGCAAUAUUACGCUAA	-2.38 ± 0.34	-1.11 ± 0.4
AGAAAGCAAUAUUACGCUUG	-2.37 ± 0.15	-1.73 ± 0.18
AGAAAGCAAUAUUACGGACC	-0.299 ± 0.3	0.21 ± 0.3
AGAAAGCAAUAUUACGGAUA	-2.15 ± 0.15	-1.77 ± 0.15
AGAAAGCAAUAUUACGGAUC	-1.53 ± 0.13	-0.656 ± 0.17
AGAAAGCAAUAUUACGGAUG	-2.93 ± 0.14	-2.04 ± 0.14
AGAAAGCAAUAUUACGGCAC	-0.435 ± 0.087	-0.727 ± 0.13
AGAAAGCAAUAUUACGGCUU	-1.26 ± 0.072	-0.7 ± 0.089
AGAAAGCAAUAUUACGGUUC	-2.72 ± 0.12	-1.83 ± 0.13

Sequence	self-splicing fitness (ln) (30 °C)	self-splicing fitness (ln) (37 °C)
AGAAAGCAAUAUUACGGUUG	-3.65 ± 0.17	-1.78 ± 0.16
AGAAAGCAAUAUUACGGUUU	-0.927 ± 0.068	-0.0576 ± 0.082
AGAAAGCAAUAUUACGUAAC	-3.26 ± 0.22	-2.47 ± 0.33
AGAAAGCAAUAUUACGUGCA	-0.717 ± 0.079	-0.292 ± 0.099
AGAAAGCAAUAUUACGUUAG	-2.91 ± 0.19	-2.69 ± 0.18
AGACAGCAAUAUUACGAAAG	-2.18 ± 0.17	-2.48 ± 0.21
AGACAGCAAUAUUACGAACG	-1.29 ± 0.1	-0.106 ± 0.12
AGACAGCAAUAUUACGAGAU	-2.88 ± 0.1	-2.85 ± 0.18
AGACAGCAAUAUUACGAGCG	-0.874 ± 0.071	-0.405 ± 0.081
AGACAGCAAUAUUACGAGUU	-2.26 ± 0.086	-1.14 ± 0.099
AGACAGCAAUAUUACGAUAA	-2.68 ± 0.16	-0.931 ± 0.15
AGACAGCAAUAUUACGAUAU	-1.93 ± 0.064	-0.802 ± 0.07
AGACAGCAAUAUUACGAUCA	-0.682 ± 0.074	0.267 ± 0.089
AGACAGCAAUAUUACGAUUU	0.0877 ± 0.068	0.119 ± 0.086
AGACAGCAAUAUUACGCAAC	-3.42 ± 0.22	-1.2 ± 0.14
AGACAGCAAUAUUACGCACC	-0.553 ± 0.13	0.279 ± 0.17
AGACAGCAAUAUUACGCAUG	-2.45 ± 0.13	-1.23 ± 0.11
AGACAGCAAUAUUACGCUAA	-2.17 ± 0.11	-0.0364 ± 0.1
AGACAGCAAUAUUACGCUGA	-2.39 ± 0.16	-1.75 ± 0.19
AGACAGCAAUAUUACGGAGU	-4.06 ± 0.16	-2.28 ± 0.13
AGACAGCAAUAUUACGGCAU	-0.544 ± 0.052	-0.211 ± 0.066
AGACAGCAAUAUUACGGCGG	-2.25 ± 0.13	-0.609 ± 0.14
AGACAGCAAUAUUACGGGAU	-1.22 ± 0.098	-1.71 ± 0.14
AGACAGCAAUAUUACGGGGG	-3.63 ± 0.26	-2.79 ± 0.23
AGACAGCAAUAUUACGGUAA	-2.04 ± 0.11	-1.37 ± 0.085

Sequence	self-splicing fitness (ln) (30 °C)	self-splicing fitness (ln) (37 °C)
AGACAGCAAUAUUACGGUAC	-3.29 ± 0.17	-2.41 ± 0.17
AGACAGCAAUAUUACGGUUC	-3.34 ± 0.18	-1.05 ± 0.13
AGACAGCAAUAUUACGUAAU	-1.3 ± 0.05	-0.92 ± 0.071
AGACAGCAAUAUUACGUCUA	-1.31 ± 0.097	-0.608 ± 0.099
AGACAGCAAUAUUACGUUCA	-0.336 ± 0.056	-0.159 ± 0.086
AGACAGCAAUAUUACGUUGA	-3.58 ± 0.16	-1.77 ± 0.11
AGACAGCAAUAUUACGUUUA	-2.45 ± 0.094	-0.782 ± 0.083
AGACAGCAAUAUUACGUUUU	-3 ± 0.13	-3.77 ± 0.24
AGAGAGCAAUAUUACGAUAG	–	-0.994 ± 0.49
AGAGAGCAAUAUUACGAUCA	-1.93 ± 0.16	-1.44 ± 0.17
AGAGAGCAAUAUUACGAUGU	-2.52 ± 0.41	-2.69 ± 0.36
AGAGAGCAAUAUUACGCAAU	-3.58 ± 0.43	-2.48 ± 0.29
AGAGAGCAAUAUUACGCACC	0.805 ± 0.35	–
AGAGAGCAAUAUUACGCAUA	-3.84 ± 0.39	-2.96 ± 0.47
AGAGAGCAAUAUUACGCAUU	-3.41 ± 0.18	-2.35 ± 0.15
AGAGAGCAAUAUUACGCGAU	–	-2.82 ± 0.43
AGAGAGCAAUAUUACGCUCA	-2.44 ± 0.27	-1.11 ± 0.21
AGAGAGCAAUAUUACGCUGA	-2.75 ± 0.18	-2.94 ± 0.28
AGAGAGCAAUAUUACGGACU	-0.413 ± 0.12	-0.495 ± 0.17
AGAGAGCAAUAUUACGGCCG	-3.41 ± 0.36	-1.39 ± 0.28
AGAGAGCAAUAUUACGGGUC	–	-3.11 ± 0.48
AGAGAGCAAUAUUACGGUAA	-2.95 ± 0.31	-2.28 ± 0.33
AGAGAGCAAUAUUACGGUAU	-3.91 ± 0.37	-3.55 ± 0.29
AGAGAGCAAUAUUACGGUGA	-3.54 ± 0.38	–
AGAGAGCAAUAUUACGGUUA	-3.1 ± 0.25	-1.83 ± 0.21

Sequence	self-splicing fitness (ln) (30 °C)	self-splicing fitness (ln) (37 °C)
AGAGAGCAAUAUUACGUAGC	-4.09 ± 0.3	-3.62 ± 0.46
AGAGAGCAAUAUUACGUCAA	-2.29 ± 0.5	–
AGAGAGCAAUAUUACGUCUA	-2.48 ± 0.35	-0.494 ± 0.26
AGAGAGCAAUAUUACGUGAA	-2.82 ± 0.3	-2.16 ± 0.29
AGAGAGCAAUAUUACGUGCA	-3.36 ± 0.26	-2.34 ± 0.24
AGAGAGCAAUAUUACGUUAA	-3.32 ± 0.25	-2.36 ± 0.24
AGAGAGCAAUAUUACGUUAU	-2.61 ± 0.18	-2.64 ± 0.48
AGAGAGCAAUAUUACGUUUA	–	-2.08 ± 0.33
AGAUAGCAAUAUUACGAAUG	-2.62 ± 0.13	-1.32 ± 0.11
AGAUAGCAAUAUUACGCAGC	-2.44 ± 0.22	-1.43 ± 0.4
AGAUAGCAAUAUUACGCCCG	-0.427 ± 0.23	-0.478 ± 0.24
AGAUAGCAAUAUUACGCCGU	-0.974 ± 0.11	-0.953 ± 0.12
AGAUAGCAAUAUUACGCGAC	-2.67 ± 0.29	-1.21 ± 0.39
AGAUAGCAAUAUUACGGUCA	-0.325 ± 0.08	0.317 ± 0.11
AGAUAGCAAUAUUACGGUGA	-1.9 ± 0.2	-0.858 ± 0.17
AGAUAGCAAUAUUACGGUUA	-0.766 ± 0.11	-0.936 ± 0.1
AGAUAGCAAUAUUACGUCCU	0.545 ± 0.095	0.159 ± 0.1
AGAUAGCAAUAUUACGUGGU	-3.03 ± 0.11	-2.27 ± 0.15
AGAUAGCAAUAUUACGUUUG	-3.06 ± 0.23	-1.21 ± 0.17
AGCAAGCAAUAUUACGAACU	-0.731 ± 0.12	-0.593 ± 0.14
AGCAAGCAAUAUUACGAAGG	-4.66 ± 0.36	-1.54 ± 0.22
AGCAAGCAAUAUUACGACUA	-0.478 ± 0.11	-0.326 ± 0.13
